Substrate in the series: O=C1O[C@H]([C@@H](O)CO)C(O)=C1O
Kind of series: initial rates of oxidized product formation by HPAEC-PAD, Michaelis-Menten fit. In kind it is biochemical, Aspergillus fumigatus. The note with it: reductant (apparent half-saturating concentration), 1 μM LPMO, 1 mM H2O2, 2 mM (GlcNAc)4, aerobic, 50 mM bis-tris/HCl pH 6.5, 37 °C. From the text: initial rates of oxidized product formation by HPAEC-PAD, Michaelis-Menten fit on AfAA11B

Results on 1 protein are retold here after article PMC8453653, “Kinetic Characterization of a Putatively Chitin-Active LPMO Reveals a Preference for Soluble Substrates and Absence of Monooxygenase Activity” (ACS Catalysis, 2021).

As a reminder, the Km is the substrate concentration at which the rate is half of its maximum.

B1: AfAA11B (Aspergillus fumigatus Af293) (protein)
chain: HMKMRQPTPYSDSSLNNSPLAADGSDFPCKLRDNAFVPPSQETIAQIGEVMPLTFTGSATHGGGSCQVSLTTDLKPSKDSKWMVIKSIEGGCPANVDGNMSGGADVPDPFEFNYTIPAGIEPGKYTLAWTWFNRIGNREMYMNCAPITVTAGSSKRDAAPVAEKVEVEKRSANFPAMFVANINGCTTKEGVDIRFPDPGDVVEYDGNPSNLQPAGEAACSGTPAWTVSGGSGSPSTPSTSSSTPAGTSAGVSVSVGATVGATPTAEPESSSSEPAESEGAPGVFAPTSATVFPSTPTASAAPTSSSSGAGSESDSSSSSNGALTGPCSTEGLWNCIDGSSFQRCANGQWTTAQQMAAGTECTVGQNAQFTISATAVKPRMINAMRHRKRAHGGHRHA
notes: gene 1257 bp; expressed in Pichia pastoris (PichiaPink Strain 4), no tag mentioned; copper-saturated
With B1, the Km turned out to be 502 ± 35 µM and the kcat is 3.9 ± 0.2 s^–1.
